Measured values reported in article PMC9352680, “A comprehensive thermodynamic model for RNA binding by the Saccharomyces cerevisiae Pumilio protein PUF4”.
Changes are numbered by the printed parent chain. Numbers in names are those of the source.

T1: PUF4 RNA-binding domain (Saccharomyces cerevisiae, UniProt P25339 537-888)
T1 sequence: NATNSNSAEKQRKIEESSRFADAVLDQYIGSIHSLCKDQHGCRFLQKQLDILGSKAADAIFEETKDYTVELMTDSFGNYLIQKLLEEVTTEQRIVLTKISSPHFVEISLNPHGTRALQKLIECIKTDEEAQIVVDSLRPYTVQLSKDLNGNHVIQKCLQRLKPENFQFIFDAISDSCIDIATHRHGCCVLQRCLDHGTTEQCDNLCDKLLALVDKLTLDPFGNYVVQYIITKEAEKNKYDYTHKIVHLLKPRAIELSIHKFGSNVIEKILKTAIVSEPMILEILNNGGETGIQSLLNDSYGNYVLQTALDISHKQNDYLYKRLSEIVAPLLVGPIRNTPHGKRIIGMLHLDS

B1: Ic_S4_P5E.1_K5.1_C5.1_H5.1_A5.1_[T5C]_[T6G]_[A7C]_F5.1_[T8G]_[A10C]_T5.1 (ssRNA)
RNA: UUUGACAACUGAUCGUUCUUUCUUGUACGCGUCUUCUUUCUCGAUCAGUUGUCUUU
B2: Ic_S4_P5E.1_K5.1_C5.1_H5.1_A5.1_[T5C]_[T6A]_[A7C]_F5.1_[T8A]_[A10G]_T5.1 (ssRNA)
RNA: B1 RNA with G29A, G31A, C33G
B3: Ic_S4_P5E.1_K5.1_C5.1_H5.1_A5.1_[T6G]_[A7C]_F5.1_[T8C]_[T9C]_[A10T]_T5.1 (ssRNA)
RNA: B1 RNA with C28U, G31C, U32C, C33U
B4: Ic_S4_P5E.1_K5.1_C5.1_H5.1_A5.1_[T5C]_[T6C]_[A7C]_F5.1_[T8G]_[T9C]_[A10G]_T5.1 (ssRNA)
RNA: B1 RNA with G29C, U32C, C33G
B5: Ic_S4_P5E.1_K5.1_C5.1_H5.1_A5.1_[T6C]_[A7T]_F5.1_[T8A]_T5.1 (ssRNA)
RNA: B1 RNA with C28U, G29C, C30U, G31A, C33A
B6: Ic_S4_P5E.1_K5.1_C5.1_H5.1_A5.1_[T5C]_[A7C]_F5.1_[T8A]_[T9C]_[A10G]_T5.1 (ssRNA)
RNA: B1 RNA with G29U, G31A, U32C, C33G
B7: Ic_S4_P5E.1_K5.1_C5.1_H5.1_A5.1_[A7T]_F5.1_[T9C]_[A10T]_T5.1 (ssRNA)
RNA: B1 RNA with C28U, G29U, C30U, G31U, U32C, C33U
B8: Ic_S4_P5E.1_K5.1_C5.1_H5.1_A5.1_[T5C]_[T6A]_[A7T]_F5.1_[T8A]_[T9G]_[A10T]_T5.1 (ssRNA)
RNA: B1 RNA with G29A, C30U, G31A, U32G, C33U
B9: Ic_S4_P5E.1_K5.1_C5.1_H5.1_A5.1_[T5A]_[A7C]_F5.1_[T8A]_[A10C]_T5.1 (ssRNA)
RNA: B1 RNA with C28A, G29U, G31A
B10: Ic_S4_P5E.1_K5.1_C5.1_H5.1_A5.1_[T5G]_[T6C]_[A7T]_F5.1_[T9A]_[A10C]_T5.1 (ssRNA)
RNA: B1 RNA with C28G, G29C, C30U, G31U, U32A
B11: Ic_S4_P5E.1_K5.1_C5.1_H5.1_A5.1_[T5A]_[T6A]_[A7C]_F5.1_[T8C]_[T9G]_[A10C]_T5.1 (ssRNA)
RNA: B1 RNA with C28A, G29A, G31C, U32G
B12: Ic_S4_P5E.1_K5.1_C5.1_H5.1_A5.1_[T5C]_[T6C]_[A7G]_F5.1_[T8G]_[T9C]_[A10C]_T5.1 (ssRNA)
RNA: B1 RNA with G29C, C30G, U32C
B13: Ic_S4_P5E.1_K5.1_C5.1_H5.1_A5.1_[T5C]_[T6A]_F5.1_[T8A]_[A10C]_T5.1 (ssRNA)
RNA: B1 RNA with G29A, C30A, G31A
B14: Ic_S4_P5E.1_K5.1_C5.1_H5.1_A5.1_[T5C]_[T6A]_[A7T]_F5.1_[T8A]_[T9C]_[A10G]_T5.1 (ssRNA)
RNA: B1 RNA with G29A, C30U, G31A, U32C, C33G
B15: Ic_S4_P5E.1_K5.1_C5.1_H5.1_A5.1_[T5C]_[A7G]_F5.1_[T8C]_[T9G]_[A10C]_T5.1 (ssRNA)
RNA: B1 RNA with G29U, C30G, G31C, U32G
B16: Ic_S4_P5E.1_K5.1_C5.1_H5.1_A5.1_[T6G]_[A7T]_F5.1_[T8G]_[T9C]_[A10C]_T5.1 (ssRNA)
RNA: B1 RNA with C28U, C30U, U32C
B17: Ic_S4_P5E.1_K5.1_C5.1_H5.1_A5.1_[T5C]_[T6A]_[A7G]_F5.1_[T9C]_[A10C]_T5.1 (ssRNA)
RNA: B1 RNA with G29A, C30G, G31U, U32C
B18: Ic_S4_P5E.1_K5.1_C5.1_H5.1_A5.1_[T5C]_[T6A]_F5.1_[T8A]_[T9C]_[A10T]_T5.1 (ssRNA)
RNA: B1 RNA with G29A, C30A, G31A, U32C, C33U
B19: Ic_S4_P5E.1_K5.1_C5.1_H5.1_A5.1_[T6A]_[A7C]_F5.1_[T8C]_[T9C]_[A10G]_T5.1 (ssRNA)
RNA: B1 RNA with C28U, G29A, G31C, U32C, C33G
B20: Ic_S4_P5E.1_K5.1_C5.1_H5.1_A5.1_[T6G]_[A7T]_F5.1_[T8A]_[T9C]_[A10C]_T5.1 (ssRNA)
RNA: B1 RNA with C28U, C30U, G31A, U32C
B21: Ic_S4_P5E.1_K5.1_C5.1_H5.1_A5.1_[T6G]_[A7C]_F5.1_[T8C]_[T9A]_[A10T]_T5.1 (ssRNA)
RNA: B1 RNA with C28U, G31C, U32A, C33U
B22: Ic_S4_P5E.1_K5.1_C5.1_H5.1_A5.1_[T6C]_[A7T]_F5.1_[T9C]_[A10C]_T5.1 (ssRNA)
RNA: B1 RNA with C28U, G29C, C30U, G31U, U32C
B23: Ic_S4_P5E.1_K5.1_C5.1_H5.1_A5.1_[T5C]_[T6C]_F5.1_[T8C]_[T9A]_[A10T]_T5.1 (ssRNA)
RNA: B1 RNA with G29C, C30A, G31C, U32A, C33U
B24: Ic_S4_P5E.1_K5.1_C5.1_H5.1_A5.1_[T5C]_[T6C]_[A7T]_F5.1_[T9A]_[A10G]_T5.1 (ssRNA)
RNA: B1 RNA with G29C, C30U, G31U, U32A, C33G

What follows are binders tested against T1, PUF4 RNA-binding domain (assay: Mg; RNA-MaP; 20 mM Na-HEPES pH 7.4, 30 mM KOAc, 0.75 mM MgCl2, 0.1% Tween-20, 5% glycerol, 0.1 mg/mL BSA, 2 mM DTT; 25 C; 0.0125-409.6 nM protein). Details: tags: N-His6-TEV cleaved; C-SNAP kept, Cy3B-labelled; label: tethered on chip by stalled RNA polymerase.

Point of comparison: B15, Kd 1350 nM. Against it:
- UCUCUUUGUAUAGUGUCUCUU (ssRNA) [Ib_S1_P4E.1_K4.1_C4.1_H4.1_A4.1_[T7G]_F4.1_[A9G]_T4.1] — 100-fold lower, 13 nM
- UCUCUUUGUAUCUUUUCUCUU (ssRNA) [Ib_S1_P4E.1_K4.1_C4.1_H4.1_A4.1_[A6C]_F4.1_[A9T]_T4.1] — 65-fold lower, 20.9 nM
- UCUCUUUGUAUGUUUUCUCUU (ssRNA) [Ic_S1_P4E.1_K4.1_C4.1_H4.1_A4.1_[A6G]_F4.1_[A9T]_T4.1] — 34-fold lower, 40 nM
- UCUCUUUGUAUUUUUUCUCUU (ssRNA) [Ib_S1_P4E.1_K4.1_C4.1_H4.1_A4.1_[A6T]_F4.1_[A9T]_T4.1] — 65-fold lower, 20.9 nM
- UCUCUUUGUAUUUUCUCUCUU (ssRNA) [Ic_S1_P4E.1_K4.1_C4.1_H4.1_A4.1_[A6T]_F4.1_[A9C]_T4.1] — 38-fold lower, 36 nM
- B1 — higher, > 2300 nM
- B2 — 10-fold lower, 130 nM
- B3 — 2.6-fold lower, 527 nM
- B4 — within 1.5-fold, 1670 nM
- B5 — 340-fold lower, 3.97 nM
- B6 — higher, > 2300 nM
- B7 — 87-fold lower, 15.6 nM
- B8 — 270-fold lower, 5 nM
- B9 — 3.1-fold lower, 432 nM
- B10 — 55-fold lower, 24.4 nM
- B11 — 1.9-fold lower, 703 nM
- B12 — higher, > 2300 nM
- B13 — 52-fold lower, 26.1 nM
- B14 — 93-fold lower, 14.5 nM
- B16 — 20-fold lower, 67.2 nM
- B17 — 100-fold lower, 13.2 nM
- B18 — 17-fold lower, 80.6 nM
- B19 — 12-fold lower, 117 nM
- B20 — 47-fold lower, 28.6 nM
- B21 — 24-fold lower, 56.4 nM
- B22 — 78-fold lower, 17.2 nM
- B23 — 8.5-fold lower, 158 nM
- B24 — 370-fold lower, 3.61 nM
